In patent US7049398B1, “Melanocortin metallopeptide constructs, combinatorial libraries and applications” (Palatin Technologies, Inc., priority 1999, dated 2006):
Primed or numbered codes have the meaning given here. Where no end group is shown, it is not given here. [ ]: non-standard residue; d: D form. The star is where a group is joined. Phe(2,4-Cl2) = N[C@@H](Cc1ccc(Cl)cc1Cl)C(=O)O; Phe(2-Cl) = N[C@@H](Cc1ccccc1Cl)C(=O)O; Phe(4-F) = N[C@@H](Cc1ccc(F)cc1)C(=O)O; 2Nal = N[C@@H](Cc1ccc2ccccc2c1)C(=O)O; Hydrocinnamoyl = O=C(CCc1ccccc1)*; hPhe = N[C@@H](CCc1ccccc1)C(=O)O; Tic = O=C(O)[C@@H]1Cc2ccccc2CN1; Aic = NC1(C(=O)O)Cc2ccccc2C1; Phg = N[C@H](C(=O)O)c1ccccc1; Tle = CC(C)(C)[C@H](N)C(=O)O; 4Abz = Nc1ccc(C(=O)O)cc1; Ac6c = NC1(C(=O)O)CCCCC1; Heptanoyl = CCCCCCC(=O)*; Nle = CCCC[C@H](N)C(=O)O; 2Abz = Nc1ccccc1C(=O)O; Bz′ = not defined here; Ac3c = NC1(C(=O)O)CC1; Inp = O=C(O)C1CCNCC1; Tfa = O=C(C(F)(F)F)*; Bn = c1ccc(C*)cc1; βAla = NCCC(=O)O

Experiments:
hMC4-R = target: T1, hMC4-R (Homo sapiens, UniProt P32245); assay: Competitive inhibition binding assay, 125I-NDP-alpha-MSH, hMC4-R membranes; conditions: 0.4 nM 125I-NDP-alpha-MSH
T1 construct: expressed in transfected cells; host or cells: 293 cells
Method: (§1) Representative Peptides of this Invention. Representative peptides of this invention were made using library and synthesis methods described herein, and selected peptides were tested using a binding assay. […] The peptides were synthesized using conventional peptide synthesis methods, and were complexed with rhenium using the methods described herein.
(§2) The competitive inhibition binding assay was conducted using membranes prepared from hMC4-R and B-16 mouse melanoma cells (containing MC1-R) using 0.4 nM ^125I-NDP-alpha-MSH (New England Nuclear, Boston, Mass., USA) in 50 mM HEPES buffer containing 1 mM MgCl2, 2 mM CaCl2, and 5 mM KCl, at pH 7.2. The assay tube also contained a chosen concentration of the test peptide of this invention, complexed to a rhenium metal ion as indicated, for determining its efficacy in inhibiting the binding of ^125I-NDP-alpha-MSH to its receptor. Non-specific binding was measured by complete inhibition of binding of ^125I-NDP-alpha-MSH in the assay with the presence of 1 μM alpha-MSH. Incubation was for 90 minutes at room temperature, after which the assay mixture was filtered and the membranes washed three times with ice cold buffer. The filter was dried and counted in a gamma counter for remaining radioactivity bound to the membranes. 100% specific binding was defined as the difference in radioactivity (cpm) bound to cell membranes in the absence and presence of 1 μM alpha-MSH. The cpm obtained in presence of test compounds were normalized with respect to 100% specific binding to determine the percent inhibition of ^125I-NDP-alpha MSH binding. […]

[1] = target: T2, MC1-R (B-16 mouse melanoma cells) (Mus musculus, UniProt Q01727); assay: Competitive inhibition binding assay, 125I-NDP-alpha-MSH, B-16 mouse melanoma cell membranes; conditions: 0.4 nM 125I-NDP-alpha-MSH
T2 construct: B-16 mouse melanoma cells (containing MC1-R); endogenous in cells; host or cells: B-16 mouse melanoma cells
Method: as §1, §2

[2] = Conc. cut off 10 μM, hMC4-R membranes
[3] = Conc. cut off 10 μM, B-16 mouse melanoma cell membranes
[4] = Conc. cut off 1 μM test peptide
[5] = Conc. cut off 1 μM, hMC4-R membranes
[6] = Conc. cut off 1 μM, B-16 mouse melanoma cell membranes
[7] = Conc. cut off 10 μM test peptide

T1 sequence (P32245 whole entry): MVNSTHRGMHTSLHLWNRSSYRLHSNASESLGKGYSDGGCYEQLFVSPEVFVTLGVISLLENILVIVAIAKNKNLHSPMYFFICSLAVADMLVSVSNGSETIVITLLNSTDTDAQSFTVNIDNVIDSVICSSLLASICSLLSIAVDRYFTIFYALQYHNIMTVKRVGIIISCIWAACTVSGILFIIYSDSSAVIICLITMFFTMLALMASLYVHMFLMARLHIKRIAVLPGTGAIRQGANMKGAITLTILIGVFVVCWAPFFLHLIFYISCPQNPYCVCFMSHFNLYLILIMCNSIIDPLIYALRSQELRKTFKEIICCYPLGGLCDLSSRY
T2 sequence (Q01727 whole entry): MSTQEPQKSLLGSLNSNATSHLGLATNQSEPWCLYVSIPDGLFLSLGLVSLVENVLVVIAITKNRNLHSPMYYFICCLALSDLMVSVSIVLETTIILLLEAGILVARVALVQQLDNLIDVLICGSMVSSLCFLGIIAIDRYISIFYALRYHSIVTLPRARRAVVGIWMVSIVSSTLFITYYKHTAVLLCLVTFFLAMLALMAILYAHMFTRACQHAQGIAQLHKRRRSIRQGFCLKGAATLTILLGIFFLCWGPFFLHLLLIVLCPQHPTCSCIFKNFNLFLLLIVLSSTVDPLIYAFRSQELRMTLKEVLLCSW

% Inhibition MC4-R (hMC4-R; [2])	% Inhibition MC1-R (B-16) [1, 3]	% Inhibition MC4-R (hMC4-R; [4])	% Inhibition MC1-R (B-16) [1, 4]	% Inhibition MC4-R (hMC4-R; [5])	% Inhibition MC1-R (B-16) [1, 6]	Substance	other results
8%	0%					PL-1112 (HFCW-NH2; also: ReO complex)	
		−8%	9%			PL-1859 (Ac-FFC[Tic]K-NH2; also: ReO[V] complex)	
		43%	14%			PL-1635 (Ac-[Nle]RA[Ac3c]CW-NH2; also: ReO[V] complex)	
		22%	20%			PL-1507 (Ac-RFFNCF-NH2; also: ReO[V] metal complex)	
6%	−6%					PL-847 (Ac-FHGCW-NH2; also: ReO[V] metal complex)	
		38%	20%			PL-1636 (Ac-[Nle]AH[Ac3c]RCW-NH2; also: ReO[V] complex)	
		6%	19%			PL-1863 (Ac-FFC[2Abz]K-NH2; also: ReO[V] complex)	
10%	2%					PL-1114 ([βAla]HFCW-NH2; also: ReO[V] metal complex)	
		7%	25%			PL-1926 ({Bz′}-Arg-Trp-Cys-NH2; also: ReO[V] complex)	
		3%	60%			PL-1595 (Ac-[Nle]AH[Aic]RCW-NH2; also: ReO[V] metal complex)	
				0%	−4%	PL-814 (Ac-HFCW-NH2; also: ReO[V] metal complex)	
19%	57%					PL-1094 ([βAla]G[Phe(2-Cl)]CW-NH2; also: ReO complex)	
				10%	9%	PL-1309 (Heptanoyl-CRCW-NH2; cysteine pairing not given here; also: ReO[V] metal complex)	
				35%	85%	PL-1416 (Ac-[Nle]AHFRCW-NH2; also: ReO[V] metal complex)	
70%	69%					PL-1315 (Ac-RW[Nle]CF-NH2; also: ReO[V] metal complex)	
10%	0%					PL-1089 (Ac-A[Phe(4-F)]CW-NH2; also: ReO complex)	
				−1%	−2%	PL-810 (Ac-H[2Nal]CW-NH2; also: ReO[V] complex)	
		−7%	17%			PL-1862 (Ac-FFC[3‑Abz]K-NH2; also: ReO[V] complex)	
		21%	28%			PL-1478 (Ac-RFFCS-NH2; also: ReO[V] metal complex)	
51%	57%					PL-1348 (Ac-RHFCW-NH2; also: ReO[V] metal complex)	

% Inhibition MC4-R (hMC4-R; [2])	% Inhibition MC1-R (B-16) [1, 3]	% Inhibition MC4-R (hMC4-R; [4])	% Inhibition MC1-R (B-16) [1, 4]	% Inhibition MC4-R (hMC4-R; [5])	% Inhibition MC1-R (B-16) [1, 6]	Substance	other results
				22%	62%	PL-1300 (Heptanoyl-ARCW-NH2; also: ReO[V] metal complex)	
81%	89%					PL-1344 (Heptanoyl-RFHCW-NH2; also: ReO[V] metal complex)	
				0%	−5%	PL-811 (Ac-H[Phg]CW-NH2; also: ReO[V] complex)	
		24%	20%			PL-1512 (Ac-RFFNACF-NH2; also: ReO[V] metal complex)	
				54%	43%	PL-1412 (FHCW-NH2; also: ReO[V] metal complex)	
2%	10%					PL-844 (Ac-FGCW-NH2; also: ReO[V] metal complex)	
				13%	−6%	PL-1073 (Ac-A[Tle]CW-NH2; also: ReO complex)	
				13%	−1%	PL-1091 ([βAla]GC(Bn)CW-NH2; also: ReO complex)	
36%	11%					PL-1110 (KHFCW-NH2; also: ReO complex)	
		18%	23%			PL-1513 (Ac-RFFNFC-NH2; also: ReO[V] metal complex)	
						PL-1649 (Ac-HGGCW-NH2; also: ReO[V] metal complex)	% Inhibition MC4-R (hMC4-R; [7]): 62%; % Inhibition MC1-R (B-16) [1, 7]: 19%
		29%	45%			PL-1505 (Ac-RF[2Nal]NCF-NH2; also: ReO[V] complex)	
		30%	28%			PL-1514 (Ac-RFFNFC-NH2; also: ReO[V] metal complex)	
		31%	21%			PL-1510 (Ac-RFFCNAF-NH2; also: ReO[V] metal complex)	
				27%	20%	PL-1405 (Heptanoyl-FHCW-NH2; also: ReO[V] metal complex)	
		63%	44%			PL-1606 (Ac-[Nle]RA[Aic]CW-NH2; also: ReO[V] metal complex)	
				4%	4%	PL-1092 ([βAla]GK(Tfa)CW-NH2; also: ReO complex)	
				19%	1%	PL-1299 (Heptanoyl-[βAla]RCW-NH2; also: ReO[V] metal complex)	
8%	3%					PL-1095 ([βAla]G[Lys(Z)]CW-NH2; also: ReO complex)	
				0%	−4%	PL-809 (Ac-H[hPhe]CW-NH2; also: ReO[V] complex)	

% Inhibition MC4-R (hMC4-R; [2])	% Inhibition MC1-R (B-16) [1, 3]	% Inhibition MC4-R (hMC4-R; [4])	% Inhibition MC1-R (B-16) [1, 4]	% Inhibition MC4-R (hMC4-R; [5])	% Inhibition MC1-R (B-16) [1, 6]	Substance	other results
		34%	36%			PL-1621 (Ac-[Nle]AH[Ac6c]RCW-NH2; also: ReO[V] complex)	
12%	6%					PL-1096 ([βAla]GLCW-NH2; also: ReO complex)	
		26%	21%			PL-1511 (Ac-RFFNCAF-NH2; also: ReO[V] metal complex)	
				10%	2%	PL-1090 (Ac-AXCW-NH2; not fully specified (residue 2); printed as Ac-L-Ala-L-Tyr(3′,5′ di-I, 4′-Ac)-L-Cys-L-Trp-NH2; also: ReO[V] metal complex)	
72%	74%					PL-1364 (Ac-WFHCR-NH2; also: ReO[V] metal complex)	
59%	84%			0%	27%	PL-1394 (Ac-HRWCF-NH2; also: ReO[V] metal complex)	
9%	12%					PL-839 (Ac-HFWC-NH2; also: ReO[V] metal complex)	
				0%	−3%	PL-808 (Ac-HWCW-NH2; also: ReO[V] metal complex)	
		0%	6%			PL-1860 (Ac-FFC[Inp]K-NH2; also: ReO[V] complex)	
64%	78%					PL-1366 (Ac-HFWCR-NH2; also: ReO[V] metal complex)	
		66%	73%			PL-1450 (Ac-[Nle]AHFRCW-NH2; also: ReO[V] metal complex)	
62%	57%					PL-1360 (Ac-RWFCH-NH2; also: ReO[V] metal complex)	
						PL-1655 (Ac-HFRCW-NH2; also: ReO[V] metal complex)	% Inhibition MC4-R (hMC4-R; [7]): 51%; % Inhibition MC1-R (B-16) [1, 7]: 45%
		21%	36%			PL-1504 (Ac-RF[2Nal]NCF-NH2; also: ReO[V] complex)	
94%	96%					PL-1320 (Hydrocinnamoyl-RWC[Nle]-NH2; also: ReO[V] metal complex)	
		−14%	0%			PL-1861 (Ac-FFC[4Abz]K-NH2; also: ReO[V] complex)	
				2%	2%	PL-1093 ([βAla]G[Phe(2,4-Cl2)]CW-NH2; also: ReO complex)	
				42%	32%	PL-1406 (Heptanoyl-RFHCW-NH2; also: ReO[V] metal complex)	
